Substrate: N[C@@H](CC(=O)O)C(=O)O
Assay: purified protein
Assay type: biochemical, Plasmodium berghei
Details: 5 mM glutamine as amino donor, 10 mM ATP, 10 mM MgCl2, 50 mM Tris pH 8.0

B1: PbAS (recombinant P. berghei asparagine synthetase) (Plasmodium berghei ANKA) (protein)
chain: MCGILAIFHSSIETNRLRRKALRLSKILRHRGPDWNGIVVEENGDGTTNVLTHERLSIVDVLSGQQPLYDDKKEICLTINGEIYNHLELRKLVKQDILDALKSKSDCAIIPNLYKIYKEKLPCMLDGIFAGVISDKKYNTFFAFRDPIGICPLYIGYAADGSIWFASEFKALRIYCVRYVAFPPGHYYMCNNGKGEFVRYYNPNWWKLNSPIPNNKIDLEKIRITLENAVIKRLMGDVPFGVLLSGGLDSSIIASIISRHLKSIQTGTINNINGACVGKNNKNLNALKSFSIGLKDSPDLKAAKEVSDFLNTDHTEFHFTVDQGIDTLHDVIYHIETYDITTIRASTPMYILSRLIKSSCIKMVLSGEGSDEIFGGYLYFHKAPNAEEFHRELQRKIHDLHIYDVLRANKSTMAFGIEARVPFLDLEFLDLVMNIDPKEKMCSNNRIEKDILRRAFSGYLPDHILYRQKEQFSDGVGYNWIDGLKEYAEKKVSDAQFSRAPFLFPYNTPKTKEAYLYRCIFYQCFPEQCAQEFVPEGPSIACSTSKAIEWDEQFKVNPDQSGRYVLDVHKHSKNIEDIKAA
notes: full-length cDNA without stop codon in pET-20b(+), BamHI/XhoI, C-terminal 6xHis kept, E. coli Rosetta2DE3pLysS, Ni-NTA, 67 kDa; domains 1-202 and 203-581
- Km: 260 ± 50 µM
